# Measured values as given in US20190169638.
# Experiments:
# [1] = tested on: Sleeping Beauty transposase N123 (PAIRED DNA-binding domain, PAI+RED) (synthetic (Sleeping Beauty, reconstructed salmonid Tc1/mariner)?); experiment: EMSA; settings: reference for CAST sequences
# [2] = tested on: Sleeping Beauty transposase SB10 (synthetic (Sleeping Beauty, reconstructed salmonid Tc1/mariner)?); experiment: cell_activity; settings: transposition in HeLa
Sequence,binding signal [1],activity (% of wild-type transposon) [2]
ACATACACTTAAGTGTATGTAAACTTCCGACTTCAACTTGG / GACTCCAAGTTGAAGTCGGAAGTTTACATACACTTAAGTGTATGT [14DR (outer DR) probe],1 fold,
GTACATACACGCGCACTTCTGACCCACTGG (double strand) [pT/neo transposon with CAST-5/wt hybrid inner DRs],,130
GTGACGACCCCAAGTGTACATACACGCGCC (double strand) [pT/neo transposon with 12DRs replaced by CAST-5],,65
GTGACGACCCCAAGTGTACATACACGCGCC (double strand) [pT/neo transposon with 14DRs replaced by CAST-5],,3
GTGACGACCCCAAGTGTACATACACGCGCC (double strand) [pT/neo transposon with all four DRs CAST-5],,2.2
